Test results from PMC6823300, “The molecular basis of monopolin recruitment to the kinetochore” (Chromosoma, 2019).
Where no end group is shown, it is not given here. The star is where a group is joined. FITC = O=C1OC2(c3ccc(O)cc3Oc3cc(O)ccc32)c2ccc(NC(=S)*)cc21

B1: Sp Mis13 5–17 peptide (Dsn1-N/Box 1), fluorescein isothiocyanate-labelled (peptide)
peptide: {FITC}-PEEQEGFVFVRKG
notes: S. pombe Mis13 (Dsn1), Dsn1-N/Box 1 region, residues 5-17; also called Sp Dsn1-N/Box 1 (residues 5–17); S. pombe Mis13 Dsn1-N region
B2: His6-MBP-fused S. cerevisiae Dsn1 Box 1-2-3 region (residues 71–110 of 576) (domain or fragment, UniProt P40568 71-110, looked up)
chain: DLKFKRHKNKHIQGFPTLGERLDNLQDIKKAKRVENFNSS
notes: S. cerevisiae Dsn1, Box 1-2-3 region, residues 71-110 of 576; also called Sc Dsn1^71–110; His6-MBP-fused Dsn1 fragment; source: E. coli Rosetta2 (DE3) pLysS, purified

Columns and labels:
[1] = target: T1, S. pombe Csm1 C-terminal globular domain (residues 125–261), wild type (S. pombe, UniProt O13684 125-261); assay: fluorescence polarisation; Csm1 125–261 at 20 nM-250 μM with 20 nM FITC-labelled Mis13 5–17 peptide; 20 mM Tris 7.5, 300 mM NaCl, 10% glycerol, 0.01% NP-40, 1 mM DTT; triplicate; single-site binding model; conditions: both partners purified
T1 construct: S. pombe Csm1 (also called Pcs1), C-terminal globular domain, residues 125-261; also called S. pombe Csm1^125–261; Sp Csm1; source: E. coli Rosetta2 (DE3) pLysS, purified
T1 sequence (looked up): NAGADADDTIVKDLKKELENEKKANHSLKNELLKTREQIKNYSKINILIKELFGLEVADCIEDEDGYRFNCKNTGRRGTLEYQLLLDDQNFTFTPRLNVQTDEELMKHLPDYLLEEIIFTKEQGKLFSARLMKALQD

[2] = target: T2, S. cerevisiae Csm1 globular domain (residues 69–190 of 190), untagged (S. cerevisiae, UniProt P25651 69-190); assay: ITC; Microcal ITC 200; His6-MBP-fused Dsn1 fragments at 1–1.5 mM injected into a sample cell containing untagged Csm1 at 100–200 μM; protein buffer (20 mM Tris-HCl pH 7.5, 5% glycerol) plus 300 mM NaCl and 1 mM dithiothreitol; conditions: both partners purified
T2 construct: S. cerevisiae Csm1, globular domain, residues 69-190 of 190; also called Sc Csm1^69–190; untagged Csm1
T2 sequence (looked up): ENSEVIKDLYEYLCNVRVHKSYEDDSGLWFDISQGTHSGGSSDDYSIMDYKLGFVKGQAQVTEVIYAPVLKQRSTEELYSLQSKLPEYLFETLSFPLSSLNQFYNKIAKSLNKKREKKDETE

| Binder | Kd [1] | Kd [2] |
| --- | --- | --- |
| B1 | 22 µM | – |
| B2 | – | 12 µM |
